Residue numbers refer to the chain shown, from its start. Read-outs that look alike come from different tables or passages of the source. Values belong to the binder of their own block, whether it stands above or below them.
Tests used:
Experiment in all cases: SPR
FcgRIIa R [1] = biological target: T1, FcgRIIa R (human, UniProt P12318)
T1 chain: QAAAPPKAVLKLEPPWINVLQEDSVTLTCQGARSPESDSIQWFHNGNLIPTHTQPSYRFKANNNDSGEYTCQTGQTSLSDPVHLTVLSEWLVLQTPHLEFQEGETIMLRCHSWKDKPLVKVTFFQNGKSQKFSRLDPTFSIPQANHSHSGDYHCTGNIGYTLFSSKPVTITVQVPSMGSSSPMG

FcgRIIIa F [2] = biological target: T2, FcgRIIIa F (human, UniProt P08637)
T2 sequence (P08637 17-208): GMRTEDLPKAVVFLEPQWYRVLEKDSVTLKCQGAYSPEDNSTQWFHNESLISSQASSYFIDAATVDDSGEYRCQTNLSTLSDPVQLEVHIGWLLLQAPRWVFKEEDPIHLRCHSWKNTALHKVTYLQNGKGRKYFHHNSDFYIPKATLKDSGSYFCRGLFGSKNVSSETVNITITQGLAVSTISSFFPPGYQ

FcgRIa [3] = biological target: T3, FcgRIa (human, UniProt P12314)
T3 chain: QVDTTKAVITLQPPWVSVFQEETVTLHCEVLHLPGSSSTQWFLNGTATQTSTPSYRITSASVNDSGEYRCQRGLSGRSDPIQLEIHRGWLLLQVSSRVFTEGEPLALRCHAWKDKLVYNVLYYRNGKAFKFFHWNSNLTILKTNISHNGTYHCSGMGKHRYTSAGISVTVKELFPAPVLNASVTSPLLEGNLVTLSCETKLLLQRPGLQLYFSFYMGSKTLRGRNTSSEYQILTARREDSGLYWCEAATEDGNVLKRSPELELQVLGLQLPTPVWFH

FcgRIIIa V [4] = biological target: T4, FcgRIIIa V (human, UniProt P08637)
T4 sequence (P08637 17-208 F176V): as the sequence (P08637 17-208) above, with F160V counted along it

FcgRIIb [5] = biological target: T5, FcgRIIb (human, UniProt P31994)
T5 chain: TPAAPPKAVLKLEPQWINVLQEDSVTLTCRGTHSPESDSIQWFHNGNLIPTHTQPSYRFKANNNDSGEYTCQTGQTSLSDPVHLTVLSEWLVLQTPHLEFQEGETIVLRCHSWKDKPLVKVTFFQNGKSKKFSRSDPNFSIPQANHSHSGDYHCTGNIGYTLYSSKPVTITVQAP

FcgRIIa H [6] = biological target: T6, FcgRIIa H (human, UniProt P12318)
T6 chain: T1 chain with R134H

FcgRIIb [7] = biological target: T5, FcgRIIb
FcgRIIIa F [8] = biological target: T2, FcgRIIIa F; remark: listed apart in the source
FcgRIa [9] = biological target: T3, FcgRIa
FcgRIIa R [10] = biological target: T1, FcgRIIa R
FcgRIIa H [11] = biological target: T6, FcgRIIa H
FcgRIIIa V [12] = biological target: T4, FcgRIIIa V; remark: listed apart in the source

B1: GpH7-Kn045/GpH7-Hl048/GpL16-k0 (antibody)
chain 1: QVQLVQSGAEVKKPGASVTVSCKASGYTFTDYEMHWIRQPPGEGLEWIGAIDPKTGDTAYSESFQDRVTLTADKSTSTAYMELSSLTSEDTAVYYCTRFYSYTYWGQGTLVTVSSASTKGPSVFPLAPSSKSTSGGTAALGCLVKDYFPEPVTVSWNSGALTSGVHTFPAVLQSSGLYSLSSVVTVPSSSLGTQTYICNVNHKPSNTKVDKKVEPKSCDKTHTCPPCPAPEYYAGPSVFLFPPKPKDTLMISRTPEVTCVVVDVSDEDPEVKFNWYVDGVEVHNAKTKPREEQYNATYRVVSVLTVLHQDWLNGKEYKCKVSNKALPAPIEKTISKAKGQPREPQVCTLPPSRDELTKNQVSLWCLVKGFYPSDIAVEWESNGQPENNYKTTPPVLDSDGSFFLYSKLTVDKSRWQQGNVFSCSVMHEALHNHYTQKSLSLSP
chain 2: QVQLVQSGAEVKKPGASVTVSCKASGYTFTDYEMHWIRQPPGEGLEWIGAIDPKTGDTAYSESFQDRVTLTADKSTSTAYMELSSLTSEDTAVYYCTRFYSYTYWGQGTLVTVSSASTKGPSVFPLAPSSKSTSGGTAALGCLVKDYFPEPVTVSWNSGALTSGVHTFPAVLQSSGLYSLSSVVTVPSSSLGTQTYICNVNHKPSNTKVDKKVEPKSCDKTHTCPPCPAPELLAGPDVFLFPPKPKDTLMISRTPEVTCVVVDVSHEDPEVKFNWYVDGVEVHNAKTKPREEQYNSTYRVVSVLTVLHQDWLNGKEYKCKVSNKALPKPEEKTISKAKGQPREPQVYTLPPSRCELTKNQVSLSCAVKGFYPSDIAVEWESNGQPENNYKTTPPVLDSDGSFFLVSKLTVDKSRWQQGNVFSCSVMHEALHNHYTQKSLSLSP
chain 3: DIVMTQSPLSLPVTPGEPASISCQASESLVHSNRNTYLHWYLQKPGQSPQLLIYKVSNRFSGVPDRFSGSGSGTDFTLKISRVEAEDVGVYYCSQNTHVPPTFGQGTKVEIERTVAAPSVFIFPPSDEQLKSGTASVVCLLNNFYPREAKVQWKVDNALQSGNSQESVTEQDSKDSTYSLSSTLTLSKADYEKHKVYACEVTHQGLSSPVTKSFNRGEC
Kd (FcgRIIa R [1]): 4.8 nM
Kd (FcgRIIIa F [2]): 3.7 nM
Kd (FcgRIa [3]): 0.019 nM
Kd (FcgRIIIa V [4]): 1.3 nM
Kd (FcgRIIb [5]): 110 nM
Kd (FcgRIIa H [6]): 11 nM

B3: GpH7-Kn045/GpH7-Hl055/GpL16-k0 (antibody)
chain 1: B1 chain 1
chain 2: B1 chain 2 with Q293L, K328M
chain 3: B1 chain 3
Kd (FcgRIIa R [1]): 13 nM
Kd (FcgRIIIa F [2]): 1.6 nM
Kd (FcgRIa [3]): 0.019 nM
Kd (FcgRIIIa V [4]): 0.72 nM
Kd (FcgRIIb [5]): 240 nM
Kd (FcgRIIa H [6]): 29 nM

B4: GpH7-Kn033/GpH7-Hl033/GpL16-k0 (antibody)
chain 1: not shown
chain 2: not shown
chain 3: B1 chain 3
Kd (FcgRIIa R [1]): 740 nM
Kd (FcgRIIIa F [2]): 1600 nM
Kd (FcgRIa [3]): 0.069 nM
Kd (FcgRIIIa V [4]): 220 nM
Kd (FcgRIIb [5]): 3600 nM
Kd (FcgRIIa H [6]): 590 nM

B7: H240-Kn120/H240-Hl085/L73-k0 (antibody)
chain 1: QDQLVQSGAEVKKPGASVKVSCKASGFNIKDTYIQWVRQAPGQGLEWMGRIDPLRKQTKYREKFEGRVTITADTSTNTAYMELSSLRSEDTAVYYCVRSGREFDYWGQGTLVTVSSASTKGPSVFPLAPSSKSTSGGTAALGCLVKDYFPEPVTVSWNSGALTSGVHTFPAVLQSSGLYSLSSVVTVPSSSLGTQTYICNVNHKPSNTKVDKKVEPKSCDKTHTCPPCPAPEYYWGPMVFLFPPKPKDTLMISRTPEVTCVVVDVSDEDPEVKFNWYVDGVEVHNAKTKPREEQYNATYRVVSVLTVLHQDWLNGKEYKCKVSNKDLPAPIEKTISKAKGQPREPQVCTLPPSRDELTKNQVSLWCLVKGFYPSDIAVEWESNGQPENNYKTTPPVLDSDGSFFLYSKLTVDKSRWQQGNVFSCSVMHEALHNHYTQKSLSLSP
chain 2: QDQLVQSGAEVKKPGASVKVSCKASGFNIKDTYIQWVRQAPGQGLEWMGRIDPLRKQTKYREKFEGRVTITADTSTNTAYMELSSLRSEDTAVYYCVRSGREFDYWGQGTLVTVSSASTKGPSVFPLAPSSKSTSGGTAALGCLVKDYFPEPVTVSWNSGALTSGVHTFPAVLQSSGLYSLSSVVTVPSSSLGTQTYICNVNHKPSNTKVDKKVEPKSCDKTHTCPPCPAPELLVGPSVFLFPPKPKDTLMISRTPEVTCVVVDVSHEEPEVKFNWYVDGVEVHNAKTKPREEQYNSTYRVVSVLTVLHQDWLNGKEYKCKVSNDALPKPIEETISKAKGQPREPQVYTLPPSRCELTKNQVSLSCAVKGFYPSDIAVEWESNGQPENNYKTTPPVLDSDGSFFLVSKLTVDKSRWQQGNVFSCSVMHEALHNHYTQKSLSLSP
chain 3: DIQMTQSPSSLSASVGDRVTITCRASQDIHKYIAWYQQKPGQAPRLLIQYTSTLQPGVPSRFSGSGSGTDYTFTISSLQPEDIATYYCLQYEQLRTFGGGTKVEIKRTVAAPSVFIFPPSDEQLKSGTASVVCLLNNFYPREAKVQWKVDNALQSGNSQESVTEQDSKDSTYSLSSTLTLSKADYEKHKVYACEVTHQGLSSPVTKSFNRGEC
Kd (FcgRIIb [7]): 390 nM
Kd (FcgRIIIa F [8]): 23 nM
Kd (FcgRIa [9]): 87 nM
Kd (FcgRIIa R [10]): 19 nM
Kd (FcgRIIa H [11]): 46 nM
Kd (FcgRIIIa V [12]): 6.2 nM

B8: H240-Kn120/H240-Hl086/L73-k0 (antibody)
chain 1: B7 chain 1
chain 2: B7 chain 2 with V235I
chain 3: B7 chain 3
Kd (FcgRIIb [7]): 480 nM
Kd (FcgRIIIa F [8]): 33 nM
Kd (FcgRIa [9]): 1.4 nM
Kd (FcgRIIa R [10]): 22 nM
Kd (FcgRIIa H [11]): 53 nM
Kd (FcgRIIIa V [12]): 14 nM

B10: H240-Kn180/H240-Hl068/L73-k0 (antibody)
chain 1: B7 chain 1 with E293R
chain 2: B7 chain 2 with V235G
chain 3: B7 chain 3
Kd (FcgRIIb [7]): 240 nM
Kd (FcgRIIIa F [8]): 3.1 nM
Kd (FcgRIa [9]): 0.3 nM
Kd (FcgRIIa R [10]): 21 nM
Kd (FcgRIIa H [11]): 33 nM
Kd (FcgRIIIa V [12]): 0.67 nM

Now from value to binder:

Kd (FcgRIIa R [1]): 17 nM
Kd (FcgRIIIa F [2]): 9.7 nM
Kd (FcgRIa [3]): 0.012 nM
Kd (FcgRIIIa V [4]): 2.6 nM
Kd (FcgRIIb [5]): 230 nM
Kd (FcgRIIa H [6]): 27 nM
B2: GpH7-Kn037/GpH7-Hl036/GpL16-k0 (antibody)
chain 1: B1 chain 2 with K328A, Y347C, C354D, S364W, A366L, V405Y
chain 2: B1 chain 2 with K328A
chain 3: B1 chain 3

Kd (FcgRIIa R [1]): 250 nM
Kd (FcgRIIIa F [2]): 4.1 nM
Kd (FcgRIa [3]): 0.0028 nM
Kd (FcgRIIIa V [4]): 1.2 nM
Kd (FcgRIIb [5]): 440 nM
Kd (FcgRIIa H [6]): 470 nM
B5: GpH7-Kn032/GpH7-Hl032/GpL16-k0 (antibody)
chain 1: B1 chain 2 with A234G, K328L, Y347C, C354D, S364W, A366L, V405Y
chain 2: B1 chain 2 with A234G, K328L
chain 3: B1 chain 3

Kd (FcgRIIa R [1]): 17 nM
Kd (FcgRIIIa F [2]): 1.4 nM
Kd (FcgRIa [3]): 0.023 nM
Kd (FcgRIIIa V [4]): 0.66 nM
Kd (FcgRIIb [5]): 260 nM
Kd (FcgRIIa H [6]): 30 nM
B6: GpH7-Kn056/GpH7-Hl055/GpL16-k0 (antibody)
chain 1: B1 chain 1 with Q293L
chain 2: B1 chain 2 with Q293L, K328M
chain 3: B1 chain 3

Kd (FcgRIIb [7]): 190 nM
Kd (FcgRIIIa F [8]): 12 nM
Kd (FcgRIa [9]): 0.18 nM
Kd (FcgRIIa R [10]): 14 nM
Kd (FcgRIIa H [11]): 41 nM
Kd (FcgRIIIa V [12]): 5.4 nM
B9: H240-Kn120/H240-Hl089/L73-k0 (antibody)
chain 1: B7 chain 1
chain 2: B7 chain 2 with V235T
chain 3: B7 chain 3

From US10766960 (dated 2020)
